Ratio/Fc-WT and EC50 data for 16 molecules are collected here from patent USRE46585 (LABORATOIRE FRANCAIS DU FRACTIONNEMENT ET DES …, dated 2017).

First the molecules themselves.
B1: S4A_05 (other)
chain: CPPCPAPELLGGPSVFLFPPKPKDTLMISRTPEVTCVVVDVSHEDPEVKFNWYVDGVEVHNAKTKPREEQYNSTYRVVSVLTVLHQDWLNGKEYKCKVSNKALPAPIEKTISKAKGQPREPQVYTLPPSRDELTKNQVSLTCLVKGFYPSDIVVEWESNGQPENNYKTTPPVLDSAGSFFLYSKLTVDKSRWQQGNVFSCSVMHEALHYHYTQKSLSLSPGK
notes: EU numbering
B2: S4A_17 (other)
chain: CPPCPAPELLGGPSVFLFPPKPKDTLMISRTPEVTCVVVDVSHEDPEVKFNWYVDGVEVHNAKTKPREEQYNSTYRAVSVLTVLHQDWLNGKEYKCKVSNKALPAPIEKTISKAKGQPREPQVYTLPPSRDELTKNQVSLTCLVKGFYPSDIAVEWESNGQPETNYKTTPPVLDSDGSFFLYSKLTVDKSRWQQGNVFSCSVMHEALHSHYTQKSLSLSPGK
notes: EU numbering
B3: S6A_48 (other)
chain: CPPCPAPELLGGPSVFLFPPKPKDTLMISRTPEVTCVVVDVSHEDPEVKFNWYVDGVEVHNAKTKPREEQYNSTYRVVSVLTVLHQDWLNGKEYKCKVSNKALPAPIEKTISKAKGQPREPQVYTLPPSQDELTKNQVSLTCLVKGFYPSDIAVEWESNGQPENNYENTPPVLDSDGSFFLYSKLTVDKSRWQQGNVFSCTVMHEALHYHYTQKSLSLSPGK
notes: EU numbering
B4: S4A_25 (other)
chain: CPPCPAPELLGGPSVFLFPPKPKDTLMISRTPEVTCVVVGVSHEDPEVKFNWYVDGVEVHNAKTKPREEQYNSTYRVVSVLTVLHQDWLNGKEYKCKVSNKALPAPIEKTISKAKGQPREPQVYTLPPSRDELTKNQVSLTCLVKGFYPSDIAVEWESNGQPENNYKTTPPVLDSDGSFFLYTKLTVDKSRWQQGNVFSCSVMHEALHYHYTQKSLSLFPGK
notes: EU numbering
B5: S5A_26 (other)
chain: CPPCPAPELLGGPSVFLFPPKPKDTLMISRTPEVTCVVVDVSHEDPEVKFNWYVDGVEVHNAKTKPREEQYNSTYRVVSVLTVLHRDWLNGKEYKCKVSNKALPAPIERTISKAKGEPREPQVYTLPPSRDELTKNQVSLTCLVKGFYPSDIAVEWESNGQPENNYKTTPPVLDSDGSFFLYSKLTVDKSRWQQGNVFSCSVMHEALHYHYTQKSLSLSPGK
notes: EU numbering
B6: SSA_20 (other)
chain: CPPCQAPELLGGPSVYLFPPRPKDTLMISRTPEVTCVVVDVSHEEPEVKFNWYVDGVEVHNAKTKPREEQYNSTYRVVSVLTVLHQDWLNGKEYKCKVSNKALPAPIEKTISKAKGQPREPQVYTLPPSRDELTKNQVSLTCLVKGFYPSDIAVEWESNGQPENNYKTTPPVLDSDGSFFLYSKLTVDKSRWQQGNVFSCSVMHEALHNHYTQKSLSLSPGK
notes: EU numbering; also called S5A_20 (probable reading)
B7: S4A_36 (other)
chain: CPPCQAPELLGGPSVFLFPPKPKDTLMISRTPEVTCVVADVSHEDPEVKFNWYVDGVEVHNAKTKPREEQYNSTYRVVSVLTVLHQDWLNGKEYKCKVSNKALPAPIEKTISKAKGQPREPQVYTLSPSRDELTKNQVSLTCLVKGFYPSDIVVEWESNGQPENNYKTTPPVLDSDGSFFLYSKLTVDKSRWQQGNVFSCSVMHEALHNHYTQKSLSLSPGK
notes: EU numbering
B8: S4A_24 (other)
chain: CPPCPAPELLGGPSVFLFPPKPKDTLMISRTPEVTCVVEDVSHEDPEVKFNWYVDGVEVHNAKTKPREEQYNSTYCVVSVLTVLHQDWLNGKEYKCKVSNKALPAPIEKTISKAKGQPREPQVYTLPPSRDELTKNQVSLTCLVKGFYPSDIVVEWGSNGQPENNYKTTPPVLDSDGSFFLYSKLTVDKSRWQQGNVFSCSVMHEALHNHYTQKSLSLSPGK
notes: EU numbering
B9: S4A_07 (other)
chain: CPPCPAPELLGGPSVFLFPPKPKDTLMISRTPEVTCVVVDVSHEDPEVKFNWYVDGVEVHNAKTKPREEQYNSTYRVVSVLPVLHQDWLNGKEYKCKVSNKALPAPIEKTISKAKGQPREPQVYTLPPSRDELTKNQVSLTCLVKGFYPSDIAVEWESNGQPETNYKTTPPVLDSDGSFFLYSKLTVDKSRWQQGNVFSCSVMHEALHYHYTQKSLSLSPGK
notes: EU numbering
B10: S4A_14 (other)
chain: CPPCPAPELLGGPSVFLFPPKPKDTLMISRTPEVTCVVVDVSHEDPEVKFSWYVDGVEVHNAKTKPREEQYNSTYRVVSVLTVLHQDWLNGKEYKCKVSNKALPAPIEKTISKAKGQPREPQVYTLPPSRDELTKNQVSLTCLVKGFYPSDIVVEWESNGQPENNYKTTPPVLDSDGSFFLYSKLTVDKSRWQQGNVFSCSVMHEALHSHYTQKSLSLSPGK
notes: EU numbering
B11: S5A_07 (other)
chain: CPPCPAPELLGGPSVFLFPPKPKDTLMISRTPEVTCVVVDVSHEDPEVKFNWYVDGVEVHNAKTKPREEQYNSTYRVVSVLTVLHQDWLNGKEYKCKVSNKALPAPIEKTISKAKGQPREPQVYTLPPSRDELTKNQVSLTCLVKGFYPSDIVVEWESNGQPENNYKTTPPVLDSDGSFFLYSKLTVDKSRWQQGTVFSCSVMHEALHSHYTQKSLSLSPGK
notes: EU numbering
B12: S5A_43 (other)
chain: CPPCSAPELLGGPSVFLFPPKPKDTLMISRTPEVTCVVVDVSHEDPEVKFNWYVDGVELHNAKTKPREEQYNSTYRVVSVLTVLHQDWLNGKEYKCKVSNKALPAPIEKTISKAKGQPREPQVYTLPPSRDELTKNQVSLTCLVKGFYPSDIVVEWESNGQPENNYKTTPPVLDSDGSFFLYSKLTVDKSRWQQGNVFSCSVMHEALHNHYTQKSLSLSPGK
notes: EU numbering
B13: S4A_42 (other)
chain: CPPCPAPELLGGPSVFLFPPKPKDTLMISRTPEVTCVVADVSHEDPEVKFNWYVDGVEVHNAKTKPREEQYNSTYRVVSVLTVLHQDWLNGKEYKCKVSNKALPAPIEKTISKAKGQPREPQVYTLPPSRDELTKNQVSLTCLVKGFYPSDIAVEWESNGQPENNYKTTPPVLDSDGSFFLYSKLTVDKSRWQQGNVFSCSVMHEALHYHYTQKSLSLSPAK
notes: EU numbering
B14: C6A_66 (soluble recombinant Fc polypeptide) (other)
chain: CPPCPAPELLGGPSVFLFPPKPKDTLMISRTPEVTCVVVDVSHEDPEVKFNWYVDGVEVHNAKTKPREQYNSTYRVVSVLPVLHQDWLNGKEYKCKVSNKALPAPIEKTISKAKGQPREPQVYTLPPSRDELTKNQVSLTCLVKGFYPSDIAVEWESNGQPENNYKTTPPVLDSDGSFFLYSKLTVDKSRWQQGNVFSCSVMHEALHYHYTQKSLSLSPGK
notes: EU numbering; E. coli periplasmic expression; E294del is a deletion; not shown: C-terminal 6xHis tag and V5 tag
B15: C6A_60 (soluble recombinant Fc polypeptide) (other)
chain: CPPCSAPELLGGPSVFLFPPKPKDTLMISRTPEVTCVVVDVSHEDPEVKFNWYVDGVEVHNAKTKPREEQYNSTYRVVSVLTVLHQDWLDGKEYKCKVSNKALPAPIEKTISKAKGQPREPQVYTLPPSRDELTKNQVSLTCLVKGFYPSDIAVEWESNGQPENNYKTTPPVLDSDGSFFLYSKLTVDKSRWQQGNVFSCSVLHEALHYHYTQKSLSLSPGK
notes: EU numbering; E. coli periplasmic expression; not shown: C-terminal 6xHis tag and V5 tag
B16: T5A_74 (soluble recombinant Fc polypeptide) (other)
chain: CPPCPAPELLGGPSVFLFPPKPKDTLMISRTPEVTCVVVDVSHEDPEVKFNWYVDGVEVHNAKTKPREEQYNSTYRVVSVLTVLHQDWLDGKEYKCKVSNKALPVPIEKTISKAKGQPREPQVYTLPPSRDELTKDQVSLTCLVKGFYPSDIVVEWESNGQPENNYKTTPPVLDSDGSFFLYSKLTVDKSRWQQGNVFSCSVMHEALHYHYTQKSLSLSPGK
notes: as for B15

For one experiment, the target named is T1, FcRn-p3 fusion protein (human, UniProt P55899 24-297; P61769 21-119).
T1 construct: baculovirus expressed; coated on ELISA wells; not shown: amino terminal part of bacteriophage p3 protein and CVDE protein
T1 sequence (P55899 24-297, chain 1 of 2): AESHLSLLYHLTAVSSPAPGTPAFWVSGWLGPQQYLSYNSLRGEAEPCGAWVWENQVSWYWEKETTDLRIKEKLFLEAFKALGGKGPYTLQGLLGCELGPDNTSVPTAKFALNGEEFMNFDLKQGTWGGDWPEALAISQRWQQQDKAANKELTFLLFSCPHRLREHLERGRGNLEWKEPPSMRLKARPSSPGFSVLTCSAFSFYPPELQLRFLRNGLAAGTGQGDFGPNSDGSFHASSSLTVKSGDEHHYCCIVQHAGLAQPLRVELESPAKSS
T1 sequence (P61769 21-119, chain 2 of 2): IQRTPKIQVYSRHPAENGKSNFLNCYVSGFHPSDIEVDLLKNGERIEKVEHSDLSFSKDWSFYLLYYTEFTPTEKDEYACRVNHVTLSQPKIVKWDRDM
Description: phage ELISA pH6.
In the case of B1, the Ratio/Fc-WT came out at 3.7 fold.
In the case of B2, the Ratio/Fc-WT is 3.8 fold.
The same measure, in the same setting: for B3 the value was 4.4 fold; for B4, 4.2 fold.
As for B5, the Ratio/Fc-WT amounted to 7.9 fold.
For B6, the Ratio/Fc-WT was 4.3 fold.
With B7, the Ratio/Fc-WT stood at 4.5 fold.
B8: the Ratio/Fc-WT was 5.4 fold.
Take B9: the Ratio/Fc-WT was found to be 6.6 fold.
B10: the Ratio/Fc-WT came to 5.9 fold.
For the molecule B11, the Ratio/Fc-WT worked out at 5.1 fold.
Still for that read-out and setting: for B12 the value was 5.7 fold.
As to B13, the Ratio/Fc-WT stood at 4.2 fold.

A further experiment concerns the target T1, FcRn-p3 fusion protein. In words: ELISA pH6, soluble Fc on coated FcRn-p3.
What is called EC50 is the midpoint of the concentration-response curve. Higher therefore signals weaker potency. On to B14, for which the EC50 was 4.9 nM.
Molecule B15 had an EC50 of 2.6 nM.
Regarding B16, the EC50 came to 5.5 nM.
